Reference: paper PMC10926475, “A Detoxification Enzyme for Apis mellifera Newly Characterized by Recombinant Expression: 10-Formyl Tetrahydrofolate Dehydrogenase” (Frontiers in Insect Science, 2022)

Substrate: Nc1nc2c(c(=O)[nH]1)N[C@@H](CN(C=O)c1ccc(C(=O)N[C@@H](CCC(=O)O)C(=O)O)cc1)CN2
Assay: purified protein
Format: biochemical, Apis mellifera
Conditions: dehydrogenase reaction, 200 μM NADP+, 100 mM β-mercaptoethanol, Tris/HCl pH 7.6 (pH of highest Vmax), 30°C

B1: Amel_10-FTHFDH (10-formyl tetrahydrofolate dehydrogenase of A. mellifera) (Apis mellifera) (protein)
chain: AQLKVAIIGQSNFAAEVYKLLKLNGHQITGVFTIPDKGNREDPLAITAKIDNTPVFKIKSWRSKGVTLPEVLQLYKGIEVDLNVLPFCSQFIPMEVINHPRHRSICYHPSLLPRHRGASAITWTLIEGDDTAGFSIFWADDGLDTGPILLQRSCKVNSNDTLDSLYNNFLYPEGIKAMAEAVNLVAKGTAPMIPQTEEGATYDPMMNKKELQKIDWTKPAKQVHDFIRSLDSTPGAWTIIDGEEVRLFGSILWNDDQIPEHEIEVNVEDRLGIIHKDGLLIKAVDNHFVNVERMKVGTRTILASKFGQKSEDTIIEFTAEEQKMIESLKRTWEGILNMDVNEDTDFFACGAGSMDVIRLVEEVKDNLGVILQNIDVFMSPVFIQFVNKVVLTARGISTSKEIKYDAVEVQTNNMTLKFPRQLFINGEFVNGHGNPIDTINPHDETIICSVETGTVEDVDKAVKAAKKAFEEGEWSKISARERGVLLFKLADLMEEHKEELATIESIDSGAVYTLALKTHIGMSIETWRYFAGWCDKIQGSTIPITHARPNRNLTFTRKEPIGVCGLVTPWNYPLMMLSWKMAACLAAGNTVVMKPAQASPLTALKFAELTAKAGFPPGVVNIVPGNGTETGNAICEHLLIRKLGFTGSTQIGQSIMKSCANSNLKKVSLELGGKSPLVIFEDTDLQQAIKIAMSSVFFNKGENCIAAGRLFVEETIHDEFLQRIVEETKKISIGNPLDRSTAHGPQNHKAHLNKLLKFVERGVKEGAKLIYGGKRLDRPGWYFEPTIFTDVKDDMYIAKEESFGPIMVISKFSSKNIDDMIARANNTEYGLASGILTKDISKALRFAEKIEAGTVFINTYNKTDVAAPFGGFKMSGFGKDLGQEALNEYLKTKTITVEY
notes: complete ORF, N-terminal 6xHis tag kept (…... from primer), baculovirus / Hi5 insect cells, Ni-NTA, about 100 kDa
With B1 the Km was 9.596 µM.
